Reference: a protein production outcome set (Wang et al. 2014)

Experiment: label from the status in PepcDB records

Sequence | protein production
MVIYDLHESTYKQEVYCNIPDATSWSFPNGVLIKVVRGCWILYEKPHFRGQKCVLEEGEKVLNRDWILQNRRHPQRNFILGSLKRVLKDCSIPEIELFPQSDPACCPVYIQRAVPNLEELNISKSVSFTVKSGVWLAYPDINFKGQATVLEEDHGLFEISTAEMKSLHPLQMGGLKVEMPMNLKVIIYEKPHFHGQAKEFSEHIDSVPNFLKNNGDFHRIGSIRVIGGVWVAYEKEHFKGQQFLLEEGDFEDSNACGALSSPILSFRYLQANFIESSVTLFESDLESGKFIDITNQEISDLEEIGFGSKTRSIHVKSGVWVAYQQKFFCGEQYILEKGKYKCFFDWGGSNNIIMSIRPIQLEPLGINEPPHLLKAFSKPGFQGECIDFTEETSDLTPLMPCSFKVLRGCWLLYYQEDMFVNHCVLEEGLYADLTSCGCPASKVKSLKPIDYVFEEPSISLFALEHCEGRELHLEEAVNSVLNKDLHFYTQSVWVKSGLWIAYEGSNFLGRQILLRPNEIPNWTAFSRWKTIGSLRPMKQPAVYIRIKNRAQGEYLTVTGSLADTRATSVCISPYSGKHTQIWYYCRGLFKSKASDTCLDVIGGRDTPGAKVALWTEHGQFRQKWRLNKNGTISSYLSDQLVLDVKGGNYCDKTHVIVNQPLEGEETQKWDIEIL | failed
MEFLGSLLTFLIDIVGSFGYFGILLIVGLEYACFPLPSEVVLTFFGLSASQGEFSLIGVIIFSIIGGLLGSLICYAIGYYGGVPLQEWLGRKFPSSQKSMLALNKWFKKYGKPAVLLARIVPLTRTYVSLLAGAEKFSLKYFILYSSLGISIWNIFLVSLGYFIGDNLPLINSIMEKYTFVTLAILIIAVIIFIYLKFFKKEKNTSK | failed
MSQEQRMQKTFEVENHLGYRILRWVLLVALLSGILMSAVQVVLDAKRVSAELERDAAQTLAMVEDSATQAVFSIDDTLAQQVVDGLFALEPIHMAKITHPDGDELGDRLRPLQDSPFRPLTDPIFGQVREYRESLTRGSNPDLVYGYLEVHYDTAPYARTWLGRALVTFASGIALALILGIVLFVVFHLLLTRPLLRIVQSVKKVDPAHPDDRLVSIPEGHRADELGLWVNATNNLLVAIGDTQKKHREAEDRVTRLARYDTLTGLPSRDAFMEDLQGAIERAQEGHSSIALMVCGIDDFKSVNEQCGFRTGDTILQTVASRLTANLSSDRFNVARLGSDQFVIVEKHLRDGFQAAETAEKVLATIGSPINSGNHRISMTATLGISLFPSDADQADRLLQSAEQTMALAKQTGHNHFQFYVASIDKEIRERKQMEKDLAQALANHEFHLVYQPQINLETRRVIGAEALLRWEHPEHGMIPPDLFIPVAEANGSIVEIGQWVLDQACWQAARWASEGTHLRIAVNLSAVQLRQESIVDDILNTLKRHNIPAGRLELEVTETSFMTNLTDAVAKLHRLHRAGISIAVDDFGTGYSSLTYLKQMPVQHLKIDKQFIRDLLINEEDTRIANTIIDLGKSLNLTVVAEGVETAEQEYYLSQRGCALAQGYFFSKPLLPRDFANFVQTFHARIVENNA | failed
MSEWRGFNRKGNTMKIRPGRHNAPDFPHGAAVTIGNFDGVHLGHKHILQKLRLEADARGLPVVAVVFEPQPKEFFALRTGKTPPCRISPLRTKLELLEGTGCVDAAWVLRFDRNFSEISAQAFIDRLLRQTLNTRYLLVGDDFRFGAGREGCFELLAQQPDMQTERTPSVIVEDIRTSSTAVRQALSDGNLAYAKKLLGHDYVLGGRVVHGRKLGRTLNAPTANIRLPGHRYALGGVFVVEADGAFGTRRGVASFGFNPTVDGGCSQKLEVHLFDFQGDLYGQRLNVRFLHKLRDEEKFDGMEELKRRIEADMEAAKCW | not failed
MLIVSGCSSSQNNNGSGKSESKDSRVIHDEEGKTTVSGTPKRVVVLELSFLDAVHNLGITPVGIADDNKKDMIKKLVGSSIDYTSVGTRSEPNLEVISSLKPDLIIADAERHKNIYKQLKKIAPTIELKSREATYDETIDSFTTIAKALNKEDEGKEKLAEHKKVINDLKAELPKDENRNIVLGVARADSFQLHTSSSYDGEIFKMLGFTHAVKSDNAYQEVSLEQLSKIDPDILFISANEGKTIVDEWKTNPLWKNLKAVKNGQVYDADRDTWTRFRGIKSSETSAKDVLKKVYNK | failed
MSLTQAQGAQQYVNINPPMPSDTPGKIEVLEFFAYTCPHCAAIEPMVEDWAKTAPQDVVLKQVPIAFNAGMKPLQQLYYTLQALERPDLHPKVFTAIHTERKRLFDKKAMGEWAASQGVDRAKFDSVFDSFSVQTQVQRASQLAEAAHIDGTPAFAVGGRYMTSPVLAGNDYAGALKVVDQLIVQSREGHHHHHH | not failed
MESSPLISAGLPIALFIIMIGIGMTLTLRDFRQVAVYPKGMIVGTFAQILLMPVVAFGLAWLFGVSPAIAVGLVIIAACPGGTTSNLFVLLARGNIALSIVLTVSASLITILTLPLFTNMALQHFMGTEESISLPVGKTIAMLVVIVLLPVAIGMLVRTRKPELARKAESLVSIFGGIVLAVLVVALLYGVRDQMWDLLKQAGPSTIALNVAGIALGLLAGRVAGLTQRESLAVAVELGVKNGTIGLMVTLTLLESSTMSIPAAVYGVLMFPIGFLLAMYGRKVIPKSNVAHAAGEA | failed
AAIYHLDVSGQATIRFRPPAFLKTLVSEHAGTTRLNTLSMIHHDDRHMLSNAYSKLREAKHSLTLVYRIVTPEGKLHWIEDHMRSSFSDD | failed
MPRWLPRAMVLALALIAAFQLGSWAFHQLTGLLINVLIAFFLALAIEPAVSWMAGRGMRRGFATFLVFLAVLIAAAGFVTLLGSMLAGQIVKMVEEFPDYLDSVINWVNGHFHTELRRVDIQEGLLRSDWLRNYVQNSATGVLDVSAQVLGGLFQLLTVLLFSFYFAADGPRLRRGLCSVLPPARQAEVLRAWEIAVDKTGGYLYSRGLMALVSGVAHYILLEILEVPYAPALAVWVGLVSQFIPTIGTYLAGALPMLIAFTVNPWYALWVLVFVVIYQQFENYVLQPKLTSKTVDIHPAVAFGSVIAGTALLGAVGALIAIPAVATLQAFLGAYVKRYDVTDDPRVHGRRGRRSVSGTSTRLRKLWTRRPEPGLEGPERTEGPERTEGGEGTDGTRDGGSS | failed
MVSPKKESKSMKILKNLALPIAMALGVLAWPILSPLSFLIPYMIFLMLFFTFLKISPRDMHFSRLHLLLALIQITLAIGGFFAFRLLDPIVAEGVMICFICPAATASSVIIGMLGGNIAFGATYVLLTHMGVAVLGPLLFSSLSTAHADMPFWSSVIHILWGVLPLVVVPLLAAWIIRFTSPRTHARLLRIPQMAFWLWVTSLAIIMAKTTGYVMAQGSDSIRLELLLALGGLLSCLLQFGLGKWLSKRYLKESITAGQALGQKNTSLAIWMSLTYLNPIASIAPASYVVWQNSLNSIQIWLYDKRKNKTDRQ | failed
MSLRARIHSPEEHGSRGEDGHLVASYRAKLLEEIDLAEMSALATAERRARLERVLGHIISREGPVLSTVERSQLIRRVVDEALGLGILEPLLEDASITEIMVNGPDAIFVERAGRVEQLPLRFASHDQLMQTIERIVSTVNRRVDESNPMVDARLPSGERVNVIIPPLSLTGATLTIRRFPRSFTLQELIGLGSLDENMLYLLAGLVQARFNIIVSGATGTGKTTLLNALSGLIPESDRIITIEDSAELQLQQAHVIRLESRPPNVEGQGRITIRDLVRNSLRMRPDRIVVGEVRGGESLDMLQAMSTGHDGSLATVHANSAEDALMRLQTLASMSDVEIPFVALHDQINSSVDVLIQLTRFADGARRITEIALLASHGGEPYRLATVARFNARPMSADGRVVGAYEYHPLPHRTAERLYMAGQPIPQAFGVAHTPDQLTTREAR | failed
MSLHDFTLADVYRRNAALFPDRTAFMVDGVRLTHRDYLARAERLASGLLRDGVHTGDRVAILSQNCSEMIELIGAVALIGAILLPVNYRLNADEIAFVLGDGAPSVVVAGTDYRDIVAGVLPSLGGVKKAYAIGDGSGPFAPFKDLASDTPFSAPEFGAADGFVIIHTAAVGGRPRGALISQGNLLIAQSSLVDAWRLTEADVNLGMLPLFHVTGLGLMLTLQQAGGASVIAAKFDPAQAARDIEAHKVTVMAEFAPMLGNILDQAAPAQLASLRAVTGLDTPETIERFEATCPNATFWATFGQSETSGLSTFAPYRDRPKSAGRPLFWRTVAVVDAEDRPLPPGEVGEIVLRGPTVFKGYWNNAAATQHAFRNGWHHTGDMGRFDADGYLFYAGRAPEKELIKTGGENVYPAEVEGALKQHPAIADAVVIGVPDPQWSEAIKAVCVCKPGESIAADALAEFVASLIARYKKPKHVVFVEALPKDAKGAIDRAAVKTAHGQEGHHHHHH | not failed
MILTVGNTKGGVGKTTLAVNLAVERFLAGKDVLLIDADNQRTSSAFSALRESLHGQTGYTCIELSGSAVHQQGRNLAPKYDEVIIDVGGRDTSALRGALAISDIALVPFAVGTFDIWAAEDIGRLIEEARGFNPTLRAFSVLNMADPAGGDNADAAGLLTETSALVYLRASLVRRKAMRNAAAAGLGVLEMTGSSRDSKACGEVGYLAELLYNKLNLEHHHHHH | failed
MENGLAQGIGGIAFLVGVMAFWQKDDLRFRYQMMAFCFIMGVHFALLGATVAAIGVVINGIRSFASIKTQSRKVMWFFIALMWLMTLPNMSHFFELLTVIGSSVATWALFSKQGIALRSLILFNSFCWVSHNLWLGSIGGSLVESTFIVTNLLTIYRLFHAQERISQTQNNQFLASNTESSTD | failed
MATNIPCEVVAFSDRKLKPLIYVYSFPGLTRRTKLKGNILLDYTLLSFSYCGTYLASYSSLPEFELALWNWESSIILCKKSQPGMDVNQMSFNPMNWRQLCLSSPSTVSVWTIERSNQEHCFRARSVKLPLEDGSFFNETDVVFPQSLPKDLIYGPVLPLSAIAGLVGKEAETFRPKDDLYPLLHPTMHCWTPTSDLYIGCEEGHLLMINGDTLQVTVLNKIEEESPLEDRRNFISPVTLVYQKEGVLASGIDGFVYSFIIKDRSYMIEDFLEIERPVEHMTFSPNYTVLLIQTDKGSVYIYTFGKEPTLNKVLDACDGKFQAIDFITPGTQYFMTLTYSGEICVWWLEDCACVSKIYLNTLATVLACCPSSLSAAVGTEDGSVYFISVYDKESPQVVHKAFLSESSVQHVV | failed
MEFLSLVIVVVAAFMTPIIVHRFNINFLPVVVAEILMGIVIGHSFLNLVERDAFLNILSTLGFIFLMFLSGLEIDFNAFKKDSRPRQGEDKHEKDVPGHLKLALTVFAFIMMISVVLAFAFKWLGLVNDVLLMVIIISTISLGVVVPTLKEMNIMRTTIGQFILLVAVLADLFTMILLTVYGAIYGEGGSTIWLTGILVVFTVVFYVIGVLFKRMSFLQKLMDGTTQIGIRAVFALIILLVALAEGVGAEYILGAFLAGVVVSLLKPNEEMVEKLDSFGYGFFIPIFFIMVGVDLDIPSLIKEPSLLLIIPVLIFSFIISKLIPVFYIRRWFDTKTTIASAFLLTSTLSLVIAAAKIAEKLKAISPETSGILILSAVITCVFVPVIFKKMFPIPNEVGRRIEVSMIGKNQLTIPIAQNLTSQLYDISLYYRKDLSDSRKLSDDITMIEIADYEEDLLERLGLFERDIVVCSTNDDHINKSVALMAKKHGVKRVICRLESTNEDPTLKHQGIEVFSNYLSNKILLKSLIETPNMLNLLSNVETSLYEIQMLNYQYENIQLRNFPFGGDIIFVRIIRDNDSIVPHGDTQLRYKDRLIVTGTKEYVDELKQELEFYY | failed
MDKKPSILIFIVAYNAESTIENVLMRIPADLLDDFDAEVLVIDDQSSDDTVLRCAETIQSGKIRFKTNVLVNPENQGYGGNQKVGYQYAIEHDFDCVALLHGDGQYAPEYLRDLITPVTKGEAEAVFGSRMMTPFGALKGGMPAYKFVGNKILTLFQNIMLKTSLSEFHSGYRAYSVKALKQIPFHLNTPDFHFDTEIIIQLILWGFRIAERPIPTYYGDEICYVNGLKYALDVVITTTKARMQRLGLFHECKYEVIHPHNSNGYPEAKLSIKSPSGNRILEHHHHHH | failed
MDAIRIVLKNISQVLLLNNAWTGLFILLGLFIGSWKVGVMALIASVIALLLAKRTNYSEEEINTGLSGFNPVLTAIALTLFLVPKWYSLIIILVAIIITMPIGSAFREFFKPFGVPMLTMPYVFVSWLILLMSFQFKFVNADVNILPNAIQEIQFSGHHIQFINAFLSGFSEIFLLKSVLAGTLILIGIFIASRKAGVYAIVANLIGFLAVIVLGANHDQINEGLFGYNVILTVLALGIAFRTRIQRPISIVLGILLTVVIHAGMTTLLTPYGLPVFTLPFIIATWIMLFAGNQMKAQEI | failed
